Laboratory results taken from patent publication US12099068B2, “Biomarkers for graft-versus-host disease” (Incyte Corporation, priority 2018, dated 2024).

B1: VSIG2 (protein, UniProt Q96IQ7 24-327, looked up)
V-set and immunoglobulin …: VEVKVPTEPLSTPLGKTAELTCTYSTSVGDSFALEWSFVQPGKPISESHPILYFTNGHLYPTGSKSKRVSLLQNPPTVGVATLKLTDVHPSDTGTYLCQVNNPPDFYTNGLGLINLTVLVPPSNPLCSQSGQTSVGGSTALRCSSSEGAPKPVYNWVRLGTFPTPSPGSMVQDEVSGQLILTNLSLTSSGTYRCVATNQMGSASCELTLSVTEPSQGRVAGALIGVLLGVLLLSVAAFCLVRFQKERGKKPKETYGGSDLREDAIAPGISEHTCMRADSSKGFLERPSSASTVTTTKSKLPMVV
B2: NCF2 (protein, UniProt P19878 1-526, looked up)
Neutrophil cytosol factor 2: MSLVEAISLWNEGVLAADKKDWKGALDAFSAVQDPHSRICFNIGCMYTILKNMTEAEKAFTRSINRDKHLAVAYFQRGMLYYQTEKYDLAIKDLKEALIQLRGNQLIDYKILGLQFKLFACEVLYNIAFMYAKKEEWKKAEEQLALATSMKSEPRHSKIDKAMECVWKQKLYEPVVIPVGKLFRPNERQVAQLAKKDYLGKATVVASVVDQDSFSGFAPLQPQAAEPPPRPKTPEIFRALEGEAHRVLFGFVPETKEELQVMPGNIVFVLKKGNDNWATVMFNGQKGLVPCNYLEPVELRIHPQQQPQEESSPQSDIPAPPSSKAPGRPQLSPGQKQKEEPKEVKLSVPMPYTLKVHYKYTVVMKTQPGLPYSQVRDMVSKKLELRLEHTKLSYRPRDSNELVPLSEDSMKDAWGQVKNYCLTLWCENTVGDQGFPDEPKESEKADANNQTTEPQLKKGSQVEALFSYEATQPEDLEFQEGDIILVLSKVNEEWLEGECKGKVGIFPKVFVEDCATTDLESTRREV
B3: TMPRSS5 (protein, UniProt Q9H3S3 1-457, looked up)
Transmembrane protease serine …: MSLMLDDQPPMEAQYAEEGPGPGIFRAEPGDQQHPISQAVCWRSMRRGCAVLGALGLLAGAGVGSWLLVLYLCPAASQPISGTLQDEEITLSCSEASAEEALLPALPKTVSFRINSEDFLLEAQVRDQPRWLLVCHEGWSPALGLQICWSLGHLRLTHHKGVNLTDIKLNSSQEFAQLSPRLGGFLEEAWQPRNNCTSGQVVSLRCSECGARPLASRIVGGQSVAPGRWPWQASVALGFRHTCGGSVLAPRWVVTAAHCMHSFRLARLSSWRVHAGLVSHSAVRPHQGALVERIIPHPLYSAQNHDYDVALLRLQTALNFSDTVGAVCLPAKEQHFPKGSRCWVSGWGHTHPSHTYSSDMLQDTVVPLFSTQLCNSSCVYSGALTPRMLCAGYLDGRADACQGDSGGPLVCPDGDTWRLVGVVSWGRGCAEPNHPGVYAKVAEFLDWIHDTAQDSLL
B4: IDUA (protein, UniProt P35475 28-653, looked up)
Alpha-L-iduronidase: APHLVHVDAARALWPLRRFWRSTGFCPPLPHSQADQYVLSWDQQLNLAYVGAVPHRGIKQVRTHWLLELVTTRGSTGRGLSYNFTHLDGYLDLLRENQLLPGFELMGSASGHFTDFEDKQQVFEWKDLVSSLARRYIGRYGLAHVSKWNFETWNEPDHHDFDNVSMTMQGFLNYYDACSEGLRAASPALRLGGPGDSFHTPPRSPLSWGLLRHCHDGTNFFTGEAGVRLDYISLHRKGARSSISILEQEKVVAQQIRQLFPKFADTPIYNDEADPLVGWSLPQPWRADVTYAAMVVKVIAQHQNLLLANTTSAFPYALLSNDNAFLSYHPHPFAQRTLTARFQVNNTRPPHVQLLRKPVLTAMGLLALLDEEQLWAEVSQAGTVLDSNHTVGVLASAHRPQGPADAWRAAVLIYASDDTRAHPNRSVAVTLRLRGVPPGPGLVYVTRYLDNGLCSPDGEWRRLGRPVFPTAEQFRRMRAAEDPVAAAPRPLPAGGRLTLRPALRLPSLLLVHVCARPEKPPGQVTRLRALPLTQGQLVLVWSDEHVGSKCLWTYEIQFSQDGKAYTPVSRKPSTFNLFVFSPDTGAVSGSYRVRALDYWARPGPFSDPVPYLEVPVPRGPPSPGNP
B5: CEACAM5 (protein, UniProt P06731 35-685, looked up)
Cell adhesion molecule CEACAM5: KLTIESTPFNVAEGKEVLLLVHNLPQHLFGYSWYKGERVDGNRQIIGYVIGTQQATPGPAYSGREIIYPNASLLIQNIIQNDTGFYTLHVIKSDLVNEEATGQFRVYPELPKPSISSNNSKPVEDKDAVAFTCEPETQDATYLWWVNNQSLPVSPRLQLSNGNRTLTLFNVTRNDTASYKCETQNPVSARRSDSVILNVLYGPDAPTISPLNTSYRSGENLNLSCHAASNPPAQYSWFVNGTFQQSTQELFIPNITVNNSGSYTCQAHNSDTGLNRTTVTTITVYAEPPKPFITSNNSNPVEDEDAVALTCEPEIQNTTYLWWVNNQSLPVSPRLQLSNDNRTLTLLSVTRNDVGPYECGIQNELSVDHSDPVILNVLYGPDDPTISPSYTYYRPGVNLSLSCHAASNPPAQYSWLIDGNIQQHTQELFISNITEKNSGLYTCQANNSASGHSRTTVKTITVSAELPKPSISSNNSKPVEDKDAVAFTCEPEAQNTTYLWWVNGQSLPVSPRLQLSNGNRTLTLFNVTRNDARAYVCGIQNSVSANRSDPVTLDVLYGPDTPIISPPDSSYLSGANLNLSCHSASNPSPQYSWRINGIPQQHTQVLFIAKITPNNNGTYACFVSNLATGRNNSIVKSITVSASGTSPGLSA
B6: CLUL1 (protein, UniProt Q15846 21-466, looked up)
Clusterin-like protein 1: APTWKDKTAISENLKSFSEVGEIDADEEVKKALTGIKQMKIMMERKEKEHTNLMSTLKKCREEKQEALKLLNEVQEHLEEEERLCRESLADSWGECRSCLENNCMRIYTTCQPSWSSVKNKIERFFRKIYQFLFPFHEDNEKDLPISEKLIEEDAQLTQMEDVFSQLTVDVNSLFNRSFNVFRQMQQEFDQTFQSHFISDTDLTEPYFFPAFSKEPMTKADLEQCWDIPNFFQLFCNFSVSIYESVSETITKMLKAIEDLPKQDKAPDHGGLISKMLPGQDRGLCGELDQNLSRCFKFHEKCQKCQAHLSEDCPDVPALHTELDEAIRLVNVSNQQYGQILQMTRKHLEDTAYLVEKMRGQFGWVSELANQAPETEIIFNSIQVVPRIHEGNISKQDETMMTDLSILPSSNFTLKIPLEESAESSNFIGYVVAKALQHFKEHFKTW
B7: PRELP (protein, UniProt P51888 21-382, looked up)
Prolargin: QPTRRPRPGTGPGRRPRPRPRPTPSFPQPDEPAEPTDLPPPLPPGPPSIFPDCPRECYCPPDFPSALYCDSRNLRKVPVIPPRIHYLYLQNNFITELPVESFQNATGLRWINLDNNRIRKIDQRVLEKLPGLVFLYMEKNQLEEVPSALPRNLEQLRLSQNHISRIPPGVFSKLENLLLLDLQHNRLSDGVFKPDTFHGLKNLMQLNLAHNILRKMPPRVPTAIHQLYLDSNKIETIPNGYFKSFPNLAFIRLNYNKLTDRGLPKNSFNISNLLVLHLSHNRISSVPAINNRLEHLYLNNNSIEKINGTQICPNDLVAFHDFSSDLENVPHLRYLRLDGNYLKPPIPLDLMMCFRLLQSVVI
B8: SELP (protein, UniProt P16109 42-830, looked up)
P-selectin: WTYHYSTKAYSWNISRKYCQNRYTDLVAIQNKNEIDYLNKVLPYYSSYYWIGIRKNNKTWTWVGTKKALTNEAENWADNEPNNKRNNEDCVEIYIKSPSAPGKWNDEHCLKKKHALCYTASCQDMSCSKQGECLETIGNYTCSCYPGFYGPECEYVRECGELELPQHVLMNCSHPLGNFSFNSQCSFHCTDGYQVNGPSKLECLASGIWTNKPPQCLAAQCPPLKIPERGNMTCLHSAKAFQHQSSCSFSCEEGFALVGPEVVQCTASGVWTAPAPVCKAVQCQHLEAPSEGTMDCVHPLTAFAYGSSCKFECQPGYRVRGLDMLRCIDSGHWSAPLPTCEAISCEPLESPVHGSMDCSPSLRAFQYDTNCSFRCAEGFMLRGADIVRCDNLGQWTAPAPVCQALQCQDLPVPNEARVNCSHPFGAFRYQSVCSFTCNEGLLLVGASVLQCLATGNWNSVPPECQAIPCTPLLSPQNGTMTCVQPLGSSSYKSTCQFICDEGYSLSGPERLDCTRSGRWTDSPPMCEAIKCPELFAPEQGSLDCSDTRGEFNVGSTCHFSCDNGFKLEGPNNVECTTSGRWSATPPTCKGIASLPTPGVQCPALTTPGQGTMYCRHHPGTFGFNTTCYFGCNAGFTLIGDSTLSCRPSGQWTAVTPACRAVKCSELHVNKPIAMNCSNLWGNFSYGSICSFHCLEGQLLNGSAQTACQENGHWSTTVPTCQAGPLTIQEALTYFGGAVASTIGLIMGGTLLALLRKRFRQKDDGKCPLNPHSHLGTYGVFTNAAFDPSP
B9: SLITRK2 (protein, UniProt Q9H156 22-845, looked up)
SLIT and NTRK-like protein 2: RKTAKDICKIRCLCEEKENVLNINCENKGFTTVSLLQPPQYRIYQLFLNGNLLTRLYPNEFVNYSNAVTLHLGNNGLQEIRTGAFSGLKTLKRLHLNNNKLEILREDTFLGLESLEYLQADYNYISAIEAGAFSKLNKLKVLILNDNLLLSLPSNVFRFVLLTHLDLRGNRLKVMPFAGVLEHIGGIMEIQLEENPWNCTCDLLPLKAWLDTITVFVGEIVCETPFRLHGKDVTQLTRQDLCPRKSASDSSQRGSHADTHVQRLSPTMNPALNPTRAPKASRPPKMRNRPTPRVTVSKDRQSFGPIMVYQTKSPVPLTCPSSCVCTSQSSDNGLNVNCQERKFTNISDLQPKPTSPKKLYLTGNYLQTVYKNDLLEYSSLDLLHLGNNRIAVIQEGAFTNLTSLRRLYLNGNYLEVLYPSMFDGLQSLQYLYLEYNVIKEIKPLTFDALINLQLLFLNNNLLRSLPDNIFGGTALTRLNLRNNHFSHLPVKGVLDQLPAFIQIDLQENPWDCTCDIMGLKDWTEHANSPVIINEVTCESPAKHAGEILKFLGREAICPDSPNLSDGTVLSMNHNTDTPRSLSVSPSSYPELHTEVPLSVLILGLLVVFILSVCFGAGLFVFVLKRRKGVPSVPRNTNNLDVSSFQLQYGSYNTETHDKTDGHVYNYIPPPVGQMCQNPIYMQKEGDPVAYYRNLQEFSYSNLEEKKEEPATPAYTISATELLEKQATPREPELLYQNIAERVKELPSAGLVHYNFCTLPKRQFAPSYESRRQNQDRINKTVLYGTPRKCFVGQSKPNHPLLQAKPQSEPDYLEVLEKQTAISQL
B10: CXCL16 (protein, UniProt Q9H2A7 30-254, looked up)
C-X-C motif chemokine 16: NEGSVTGSCYCGKRISSDSPPSVQFMNRLRKHLRAYHRCLYYTRFQLLSWSVCGGNKDPWVQELMSCLDLKECGHAYSGIVAHQKHLLPTSPPISQASEGASSDIHTPAQMLLSTLQSTQRPTLPVGSLSSDKELTRPNETTIHTAGHSLAAGPEAGENQKQPEKNAGPTARTSATVPVLCLLAIIFILTAALSYVLCKRRRGQSPQSSPDLPVHYIPVAPDSNT
B11: DAPP1 (protein, UniProt Q9UN19 1-280, looked up)
Dual adapter for …: MGRAELLEGKMSTQDPSDLWSRSDGEAELLQDLGWYHGNLTRHAAEALLLSNGCDGSYLLRDSNETTGLYSLSVRAKDSVKHFHVEYTGYSFKFGFNEFSSLKDFVKHFANQPLIGSETGTLMVLKHPYPRKVEEPSIYESVRVHTAMQTGRTEDDLVPTAPSLGTKEGYLTKQGGLVKTWKTRWFTLHRNELKYFKDQMSPEPIRILDLTECSAVQFDYSQERVNCFCLVFPFRTFYLCAKTGVEADEWIKILRWKLSQIRKQLNQGEGTIRSRSFIFK

These molecules were tested on plasma proteins (assay: Plasma proteins modulated between baseline and day 28 in responders (CR, VGPR, PR; n = 19), Example 6 (Table 13)). Details: plasma protein (OLINK NPX); responders (CR, VGPR, PR; n = 19); itacitinib 200 mg or 300 mg QD with corticosteroids; day 28 vs baseline.
Type: in vivo, human
Method in brief: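 Plasma at baseline/screening and day 28 profiled for >1000 proteins by OLINK proximity extension assay, reported as NPX (log2). Steroid-naive and steroid-refractory patients pooled. Paired and unpaired t tests, ANOVA and Pearson correlation applied; significance at P<0.05.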

Going from B1 to B3, the “Fold Change, Increased Expression from Baseline to Day 28” value (shortened to “Fold Change, Increased Expression”) rises from 1.2163 to 1.3307.

Going from B5 to B6, the “Fold Change, Increased Expression” value falls from 1.6422 to 1.3108.

First: B7
Second: B9
The “Fold Change, Increased Expression” value of the first is lower: 1.1833 for the first, 1.2986 for the second.

With B10 the “Fold Change, Increased Expression” value was 1.2028.

First: B2
Second: B4
The “Fold Change, Decreased Expression from Baseline to Day 28” value of the first is lower: −2.4951 for the first, −1.3887 for the second.

Compared with B8, B11 is higher in “Fold Change, Decreased Expression from Baseline to Day 28” value: −1.9244 for the first, −1.3805 for the second.
